Here are results for two substances from patent publication US20210353712A1, “METHODS OF DIAGNOSING AND TREATING VASCULAR ASSOCIATED MACULOPATHY AND SYMPTOMS THEREOF” (University of Utah Research Foundation, priority 2011, published 2021).

For this data set, the system named is DQ elastin. The data set can be described thus: In vitro elastin degradation assay. The format is biochemical. The procedure: Therefore, studies were performed to determine whether HTRA1 degrades elastin, a major component of Bruch's membrane. Recombinant HTRA1 was incubated with dye-labeled elastin at 37° C. for two hrs and the fluorescence of the released elastin peptides was monitored at 513 nm. […] In an additional positive control assay, HTRA1 elastase activity was measured by fluorescence using various concentrations of elastase enzyme starting with 0.04 ng/well of porcine pancreatic elastase and 100 ng/well of Protealmmun HtrA1. DQ Elastin substrate was 25 ug/ml.
Recombinant HtrA1 protein expressed and purified from Sf9 cells was purchased from Protealmmun (Cat. #30600103). The HtrA1 elastase activity was measured using a fluorescent EnzChekElastase Assay Kit from Invitrogen (Cat. #E12056) using the protocol provided, except substrate concentration was 12.50 ? g/mL. HtrA1 concentration was titrated from 200-12.5 ng/well in two-fold dilutions. Activity was measured in 30-minute increments for a total of 2 hours.
The explanation for the elastin degradation in both the Bruch's membrane and the choroid vessels in the HTRA1 mice is that the protease activity of overexpressed HTRA1, which is secreted from RPE, caused the degeneration. Since HTRA1 was not known to have elastase activity, an in vitro elastin degradation assay was performed using DQ elastin, a soluble elastin labeled with quenched BODIPY FL dye, as a substrate. Purified recombinant human HTRA1 degraded elastin with a specific activity of 4.4±0.8 u/mg (n=3). […] To eliminate the possibility that the depletion of the elastic layers of the choroidal vessels and Bruch's membrane was the result of downregulation of elastin expression, we analyzed the protein level of soluble elastin in the RPE/choroid of hHTRA1^+ and WT mice by western blot. […] This is similar to what has been observed in human donors with AMD and with aberrant choriocapillaris lobules.

Regarding “recombinant human HTRA1: purified recombinant human HTRA1 serine protease”, for the setting “37° C. for two hrs, fluorescence at 513 nm”, the “Degradation of dye-labeled elastin” value is reported as “degraded dye-labeled elastin”. In addition, where the note is “DQ elastin substrate”, the “Elastase activity, times less than porcine pancreas elastase” value was around 30 times and the Elastase specific activity was determined as 4.4±0.8 u/mg.
As for “porcine pancreas elastase: reference elastase enzyme [reference compound]”, the Elastase specific activity (DQ elastin substrate) turned out to be 135±5.5 u/mg.
